# Reference: the RNAGym collection of RNA variant scans (doi:10.7554/elife.80360)
# B1: CPEB3 Ribozyme (parent)
# chain: GGGGGCCACAGCAGAAGCGUUCACGUCGCGGCCCCUGUCAGAUUCUGGUGAAUCUGCGAAUUCUGCUGU
# Variants of: B1
# Experiment: self-cleavage, relative activity (ratio to wild type); higher = more cleavage; co-transcriptional
row,Variant,self-cleavage
1,GGGGGCCACAGCAGAAGCGUUCACGUCGCGGCCCCUGUCAGAUUCUGGUGAAUGUGCGAAUUCUGCUCU [C54G G68C],0.947
2,GGGGGCCACAGCAGAAGCGUUCACGUCGCGGCCCCUGUCAGAUUCUGGUGAAUGCGCGAAUUCUGCUGU [C54G U55C],0.381
3,GGGGGCCACAGCAGAAGCGUUCACGUCGCGGCCCCUGUCAGAUUCUGGUGAAUGUGCGAACUCUGCUGU [C54G U61C],0.429
4,GGGGGCCACAGCAGAAGCGUUCACGUCGCGGCCCCUGUCAGAUUCUGGUGAAUGUGCGAAUACUGCUGU [C54G U62A],0.59
5,GGGGGCCACAGCAGAAGCGUUCACGUCGCGGCCCCUGUCAGAUUCUGGUGAAUGUGCGAAUUCGGCUGU [C54G U64G],0.533
6,GGGGGCCACAGCAGAAGCGUUCACGUCGCGGCCCCUGUCAGAUUCUGGUGAAUGUGCGAAUUCUGCCGU [C54G U67C],0.819
7,GGGGGCCACAGCAGAAGCGUUCACGUCGCGGCCCCUGUCAGAUUCUGGUGAAUGUGCGAAUUCUGCGGU [C54G U67G],0.925
8,GGGGGCCACAGCAGAAGCGUUCACGUCGCGGCCCCUGUCAGAUUCUGGUGAAUGUGCGAAUUCUGCUGA [C54G U69A],1.01
9,GGGGGCCACAGCAGAAGCGUUCACGUCGCGGCCCCUGUCAGAUUCUGGUGAAUGUGCGAAUUCUGCUGG [C54G U69G],1.05
10,GGGGGCCACAGCAGAAGCGUUCACGUCGCGGCCCCUGUCAGAUUCUGGUGAAUUUGCGAAUUCUGCUGU [C54U],1
11,GGGGGCCACAGCAGAAGCGUUCACGUCGCGGCCCCUGUCAGAUUCUGGUGAAUUUGCGGAUUCUGCUGU [C54U A59G],1.04
12,GGGGGCCACAGCAGAAGCGUUCACGUCGCGGCCCCUGUCAGAUUCUGGUGAAUUUGCGUAUUCUGCUGU [C54U A59U],0.883
13,GGGGGCCACAGCAGAAGCGUUCACGUCGCGGCCCCUGUCAGAUUCUGGUGAAUUUGCGACUUCUGCUGU [C54U A60C],0.211
14,GGGGGCCACAGCAGAAGCGUUCACGUCGCGGCCCCUGUCAGAUUCUGGUGAAUUUGCGAUUUCUGCUGU [C54U A60U],0.468
15,GGGGGCCACAGCAGAAGCGUUCACGUCGCGGCCCCUGUCAGAUUCUGGUGAAUUUGAGAAUUCUGCUGU [C54U C57A],0.413
16,GGGGGCCACAGCAGAAGCGUUCACGUCGCGGCCCCUGUCAGAUUCUGGUGAAUUUGGGAAUUCUGCUGU [C54U C57G],0.407
17,GGGGGCCACAGCAGAAGCGUUCACGUCGCGGCCCCUGUCAGAUUCUGGUGAAUUUGUGAAUUCUGCUGU [C54U C57U],0.385
18,GGGGGCCACAGCAGAAGCGUUCACGUCGCGGCCCCUGUCAGAUUCUGGUGAAUUUGCGAAUUAUGCUGU [C54U C63A],0.797
19,GGGGGCCACAGCAGAAGCGUUCACGUCGCGGCCCCUGUCAGAUUCUGGUGAAUUUGCGAAUUGUGCUGU [C54U C63G],0.859
20,GGGGGCCACAGCAGAAGCGUUCACGUCGCGGCCCCUGUCAGAUUCUGGUGAAUUUGCGAAUUCUGAUGU [C54U C66A],0.845

row,Variant,self-cleavage
1,GGGGGCCACAGCAGAAGCGUUCACGUCGCGGCCCCUGUCAGAUUCUGGUGAAUUUGCGAAUUCUGGUGU [C54U C66G],0.837
2,GGGGGCCACAGCAGAAGCGUUCACGUCGCGGCCCCUGUCAGAUUCUGGUGAAUUUGCGAAUUCUGUUGU [C54U C66U],0.975
3,GGGGGCCACAGCAGAAGCGUUCACGUCGCGGCCCCUGUCAGAUUCUGGUGAAUUUACGAAUUCUGCUGU [C54U G56A],0.923
4,GGGGGCCACAGCAGAAGCGUUCACGUCGCGGCCCCUGUCAGAUUCUGGUGAAUUUCCGAAUUCUGCUGU [C54U G56C],0.466
5,GGGGGCCACAGCAGAAGCGUUCACGUCGCGGCCCCUGUCAGAUUCUGGUGAAUUUUCGAAUUCUGCUGU [C54U G56U],0.75
6,GGGGGCCACAGCAGAAGCGUUCACGUCGCGGCCCCUGUCAGAUUCUGGUGAAUUUGCAAAUUCUGCUGU [C54U G58A],0.987
7,GGGGGCCACAGCAGAAGCGUUCACGUCGCGGCCCCUGUCAGAUUCUGGUGAAUUUGCCAAUUCUGCUGU [C54U G58C],0.97
8,GGGGGCCACAGCAGAAGCGUUCACGUCGCGGCCCCUGUCAGAUUCUGGUGAAUUUGCGAAUUCUACUGU [C54U G65A],0.884
9,GGGGGCCACAGCAGAAGCGUUCACGUCGCGGCCCCUGUCAGAUUCUGGUGAAUUUGCGAAUUCUCCUGU [C54U G65C],0.561
10,GGGGGCCACAGCAGAAGCGUUCACGUCGCGGCCCCUGUCAGAUUCUGGUGAAUUUGCGAAUUCUGCUAU [C54U G68A],1.02
11,GGGGGCCACAGCAGAAGCGUUCACGUCGCGGCCCCUGUCAGAUUCUGGUGAAUUUGCGAAUUCUGCUCU [C54U G68C],1.02
12,GGGGGCCACAGCAGAAGCGUUCACGUCGCGGCCCCUGUCAGAUUCUGGUGAAUUUGCGAAUUCUGCUUU [C54U G68U],1.06
13,GGGGGCCACAGCAGAAGCGUUCACGUCGCGGCCCCUGUCAGAUUCUGGUGAAUUAGCGAAUUCUGCUGU [C54U U55A],0.924
14,GGGGGCCACAGCAGAAGCGUUCACGUCGCGGCCCCUGUCAGAUUCUGGUGAAUUCGCGAAUUCUGCUGU [C54U U55C],0.888
15,GGGGGCCACAGCAGAAGCGUUCACGUCGCGGCCCCUGUCAGAUUCUGGUGAAUUUGCGAAAUCUGCUGU [C54U U61A],0.933
16,GGGGGCCACAGCAGAAGCGUUCACGUCGCGGCCCCUGUCAGAUUCUGGUGAAUUUGCGAAGUCUGCUGU [C54U U61G],0.779
17,GGGGGCCACAGCAGAAGCGUUCACGUCGCGGCCCCUGUCAGAUUCUGGUGAAUUUGCGAAUACUGCUGU [C54U U62A],0.901
18,GGGGGCCACAGCAGAAGCGUUCACGUCGCGGCCCCUGUCAGAUUCUGGUGAAUUUGCGAAUCCUGCUGU [C54U U62C],1.02
19,GGGGGCCACAGCAGAAGCGUUCACGUCGCGGCCCCUGUCAGAUUCUGGUGAAUUUGCGAAUGCUGCUGU [C54U U62G],0.951
